The text below walks through data of patent publication US20120207760A1 (THERACLONE SCIENCES, published 2012).

To fix the notation:
B1: TCN-553 (5261_C18) (antibody, V domains shown)
VH: QVQVVQSGTEVKKPGSSVKVSCQTSGGRFMSYAITWVRQAPGQGLEWMGGIVPVFGTANYAQKFQGRVTITTDDSTRTAYMELSSLRSEDTAVYYCGFRYGSGYGFDSWGQGTLVTVSS
VL: EIVLTQSPGTLSLSPGERATLSCRASQSVSSSYLAWYQKKPGQAPRLLIYGASTRATGIPDRFTGSGSGTDFTLSISRLEPEDFAVYYCQHFGTSVFTFGGGTKVEIK
B2: TCN-556 (5089_K12) (antibody, V domains shown)
VH: QVQLVQSGAEVKKPGASVKVSCKASGYTFIGYDMHWVRQAPGQGLEWMGWINAKRGGTNYAQKFQGRVTMTRDTSISTAYMELNSLRSDDTAVYYCARGVGSRTTIFGVLNPEFDYWGQGTLVTVSS
VL: QSALTQPPSASGSPGQSVTISCTGSSSDVGGYDYVSWYQQHPGKAPKLLIYEVTKRPSGVPDRFSGSKSGNTASLTVSGLQAEDEADYYCSSYAGNYNHVFGPGTKVTVL
B3: TCN-560 (5084_P10) (antibody, V domains shown)
VH: EVQLVESGGGLVQPGGSLRLSCAASGFIFRNYWMSWVRQAPGKGLEWVANIKQDGREKYYVDSLRGRVNISRDNAENSLYLHMNSLRVEDTAVYFCARARMVVVTGDGFDVWGHGTMVTVSS
VL: DIQMTQSPSSLSASVGDRVTITCRASQNIKRYFNWYQQKPGKAPKLLIYAASNLENGVPSRFSGSGSGTDFTLTISSLQPEDFATYYCQQSFSKSWTFGQGTNVDIK
B4: TCN-555 (5246_L16) (antibody, V domains shown)
VH: QVQLVQSGAEVKRPGSSVKVSCTASGGIFRKNAISWVRQAPGQGLEWMGGIIAVFNTANYAQKFQNRVKITADESGNTAYMELSSLTSDDTAVYYCASHPKYFYGSGSYPDFWGQGTLVTVSS
VL: QSALTQPRSVSGSPGQSITISCTGGSSDIGASNSVSWYQQHPGKAPKLVIFDVTERPSGVPHRFSGSKSGNTASLTVSGLQPDDEADYFCCAYGGKYLVVFGGGTKVTVL
B5: TCN-552 (5249_I23) (antibody, V domains shown)
VH: QVQVVQSGAEVKKPGSSVRVSCQASGGTFMNYAIIWVRRAPGQGLEWMGGIIPVFPTPNYAQMFQGRVTISTDESRSTSFLELTNLRYEDTAVYYCARRIYHGGNSGFDFWGQGTLVTVSS
VL: EIVLTQSPATLSLSPGERATLSCRASQSVGNYLAWYQQKPGQAPRLLIYDSSNRAPGIPARFSGSGSGTDFTLTISSLAPEDFAVYYCQQRSKWPPMYSFGHGTKLEIK
B6: TCN-549 (5092_P04) (antibody, V domains shown)
VH: QVQLVQSGAEVKKPGASVKVSCKASGYTFTGYYMHWVRQAPGQGLEWMGWINPNSGDTNYAQKFQGRVTMTRDTSITTAYMELSSLRSDDTAVYYCARDSPYSSSWSFFDYWGQGPLVTVSS
VL: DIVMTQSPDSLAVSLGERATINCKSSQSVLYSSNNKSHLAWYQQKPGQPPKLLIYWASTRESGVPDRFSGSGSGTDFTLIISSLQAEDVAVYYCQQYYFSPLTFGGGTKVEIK
B7: TCN-548 (5092_P01) (antibody, V domains shown)
VH: QVQLQESGPGLVKPSETLSLTCTVSSGPMSDYYWSWIRQPPGKGLEWIGHVSVSHGGRTKSNPSVMSRVTISVETSKNQFSLKLTSVTAADTAVYYCARLNYYDRSGYHSPDGPSNNWFDPWGQGTLVTVSS
VL: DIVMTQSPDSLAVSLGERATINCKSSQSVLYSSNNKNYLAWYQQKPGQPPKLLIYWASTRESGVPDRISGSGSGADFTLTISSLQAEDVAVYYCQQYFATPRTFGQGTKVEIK
B8: TCN-551 (5243_D01) (antibody, V domains shown)
VH: EVQLVQSGSEVKKPGESLKISCKGSGYSFSNYWIGWVRHMPGKGLEWMGIIYPGDSDTRYSPSFQGQVTMSADKSSSTVYLQWSSLKASDTAIYYCARRGGHSFGYGSGGDTHSEFDSWGQGTLVTVSS
VL: QSVLTQSPSVSAAPGQKVTISCSGSDSNIGDYFVCWYQHLPGKPPQLLIYENNKRPSGIPDRFSGSKSGTSATLGITGIQTGDEADYYCATWDGSLSAWVFGGGTKLTVL
B9: TCN-550 (5096_F06) (antibody, V domains shown)
VH: QVQLQESGPGLVKPSETLSLTCTVSGASINSHYWSWIRQPPGKGLEWIGYVYYSGSTTYNPSLKSRVTLSVDTSKNQFSLNLSSVTAADTAFYYCARHPYDVLTGSGDWFDPWGQGTLVTVSS
VL: SYVLTQAPSVSVAPGQTARITCGGNAIGSKKVHWYQHKAGQAPVLVVYDDTDRPSGIPERFSGSNSWSTATLTINRVEAGDEADYYCQVWDFTIDHVVFGGGTKLTVL
B10: TCN-557 (5081_A04) (antibody, V domains shown)
VH: QVQLVQSGAEVKKPGASVKVSCKASGHTFTGYYIHWVRQAPGQGLEWMGWINPDSGATSSAQNFQGRVTMTGDTSSSTAYMELSRLSFDDTAVYYCARVLFTSPFDFWGEGTLVTVSS
VL: QAVVTQEPSLAVSPGGTVTLTCGSSTGAVTRGHYPYWFQQKPGQAPRALIYDSAGNRHSWTPARFSGSLLGGKAALTLSGAQPEDEAEYYCLLSYSGVWVFGGGTKLTVL

In this experiment the target is Hemagglutinin of influenza A/Solomon Islands/3/06 (H1N1), on inactivated whole virions (Influenza A virus A/Solomon …). As to the kind of experiment: ELISA, B cell culture supernatant on inactivated whole virions. (In general: An ELISA detects its analyte on a solid surface through an enzyme-linked reagent.)
As for B1, the OD450 was determined as 3.6 OD450.

The molecule B2 showed an OD450 of 2.7 OD450.

As for B3, the OD450 stood at 3.63 OD450.

B4 gave an OD450 of 2.89 OD450.

As for B5, the OD450 is 3.57 OD450.

As to B6, the OD450 came to 0.09 OD450.

The molecule B7 had an OD450 of 0.09 OD450.

As for B8, the OD450 is 3.35 OD450.

For the molecule B9, the OD450 was 0.06 OD450.

As for B10, the OD450 worked out at 2.32 OD450.
